{"source": "patent US10870874B2", "about": "“Binding fusion proteins, binding fusion protein-drug conjugates, XTEN-drug conjugates and methods of making and using same” (Amunix Pharmaceuticals, Inc., priority 2010, dated 2020)", "molecules": {"B1": {"name": "AC342: aIL6R-XTEN binding fusion protein construct (protein)", "chain": "YQQKPGKAPKLLIYYTSRLHSGVPSRFSGSGSGTDFTFTISSLQPEDIATYYCQQGNTLPYTFGQGTKVEIKTGSGEGSEGEGGGEGSEGEGSGEGGEGEGSGSQVQLQESGPGLVRPSQTLSLTCTVSGYSITSDHAWSWVRQPPGRGLEWIGYISYSGITTYNPSLKSRVTMLRDTSKNQFSLRLSSVTAADTAVYYCARSLARTTAMDYWGQGSLVTVSSGSPGSPAGSPTSTEEGTSESATPESGPGTSTEPSEGSAPGSPAGSPTSTEEGTSTEPSEGSAPGTSTEPSEGSAPGTSESATPESGPGSEPATSGSETPGSEPATSGSETPGSPAGSPT"}, "B2": {"name": "AC384: anti-CD40-XTEN_AE864 scFv binding fusion protein (protein)", "chain": "QQKPGQAPRLLIYYASHSISGIPARFSGSGSGTDFTLTISSLEPEDFAVYYCQHGHSYPWTFGGGTKVEIKTGSGEGSEGEGGGEGSEGEGSGEGGEGEGSGTQVQLVQSGSELKKPGASVKVSCKASGYAFTTTGMQWVRQAPGQGLEWMGWINTHSGVPKYVEDFKGRFVFSLDTSVSTAYLQISSLKAEDTAVYYCARSGNGNYDLAYFKYWGQGTLVTVSSGGSPAGSPTSTEEGTSESATPESGPGTSTEPSEGSAPGSPAGSPTSTEEGTSTEPSEGSAPGTSTEPSEGSAPGTSESATPESGPGSEPATSGSETPGSEPATSGSETPGSPAGSP"}, "B3": {"name": "AC385: anti-CD40-XTEN_AE864 scFv binding fusion protein (protein)", "chain": "QQKPGQAPRLLIYYASHSISGIPARFSGSGSGTDFTLTISSLEPEDFAVYYCQHGHSYPWTFGGGTKVEIKTGSGEGSEGEGGGEGSEGEGSGEGGEGEGSGTQVQLVQSGSELKKPGASVKVSCKASGYAFTTTGMQWVRQAPGQGLEWMGWINTHSGVPKYVEDFKGRFVFSLDTSVSTAYLQISSLKAEDTAVYYCARSGNGNYDLAYFKYWGQGTLVTVSSGGSPAGSPTSTEEGTSESATPESGPGTSTEPSEGSAPGSPAGSPTSTEEGTSTEPSEGSAPGTSTEPSEGSAPGTSESATPESGPGSEPATSGSETPGSEPATSGSETPGSPAGSPT"}, "B4": {"name": "XTEN_AE864: fusion protein containing XTEN_AE864 fused to the N-terminus of GFP (protein)", "chain": "MAEPAGSPTSTEEGTPGSGTASSSPGSSTPSGATGSPGASPGTSSTGSPGGASASCAPSTGGGSPAGSPTSTEEGTSESATPESGPGTSTEPSEGSAPGSPAGSPTSTEEGTSTEPSEGSAPGTSTEPSEGSAPGTSESATPESGPGSEPATSGSETPGSEPATSGSETPGSPAGSPTSTEEGTSESATPESGPGTSTEPSEGSAPGTSTEPSEGSAPGSPAGSPTSTEEGTSTEPSEGSAPGTSTEPSEGSAPGTSESATPESGPGTSTEPSEGSAPGTSESATPESGPGSEPATSGSETPGTSTEPSEGSAPGTSTEPSEGSAPGTSESATPESGPGTSESATPESGPGSPAGSPTSTEEGTSESATPESGPGSEPATSGSETPGTSESATPESGPGTSTEPSEGSAPGTSTEPSEGSAPGTSTEPSEGSAPGTSTEPSEGSAPGTSTEPSEGSAPGTSTEPSEGSAPGSPAGSPTSTEEGTSTEPSEGSAPGTSESATPESGPGSEPATSGSETPGTSESATPESGPGSEPATSGSETPGTSESATPESGPGTSTEPSEGSAPGTSESATPESGPGSPAGSPTSTEEGSPAGSPTSTEEGSPAGSPTSTEEGTSESATPESGPGTSTEPSEGSAPGGASASCAPSTGGGSEPATSGSETPGTSESATPESGPGSEPATSGSETPGSPAGSPTSTEEGTSTEPSEGSAPGSEPATSGSETPGSEPATSGSETPGSEPATSGSETPGTSTEPSEGSAPGTSESATPESGPGSEPATSGSETPGTSTEPSEGSAPG"}}, "key": {"[1]": {"target": "T1, human IL6R (Homo sapiens, UniProt P08887)", "T1 sequence (P08887 20-468)": "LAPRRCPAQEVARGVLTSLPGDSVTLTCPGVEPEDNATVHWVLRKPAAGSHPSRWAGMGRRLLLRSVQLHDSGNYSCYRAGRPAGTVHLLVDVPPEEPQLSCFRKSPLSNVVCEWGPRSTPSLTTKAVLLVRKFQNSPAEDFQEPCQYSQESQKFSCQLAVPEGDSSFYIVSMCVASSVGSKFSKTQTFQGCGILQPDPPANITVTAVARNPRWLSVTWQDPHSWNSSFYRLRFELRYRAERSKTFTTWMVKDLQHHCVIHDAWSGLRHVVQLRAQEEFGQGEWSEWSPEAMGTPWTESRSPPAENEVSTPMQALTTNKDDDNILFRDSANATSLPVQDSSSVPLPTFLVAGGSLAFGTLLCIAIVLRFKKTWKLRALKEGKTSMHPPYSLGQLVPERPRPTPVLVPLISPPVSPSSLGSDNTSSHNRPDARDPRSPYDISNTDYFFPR", "experiment": "IL6R binding ELISA of aIL6R-XTEN", "settings": "100 ng/well human IL6R", "experimental": "E. coli from a single colony of AC342 was grown to saturation in 2×YT media. 10 mL of this saturated overnight culture was used to inoculate a 500 ml of 2×YT media and this culture was grown to an OD600 between 0.4 and 0.5 at 37° C., transferred to 26° C. and induced with 1 mM IPTG. The culture was then grown overnight (15-17 hours) and harvested by centrifugation at 10,000 rpm in a Sorvall SLA-3000 rotor. The pellets were stored until use at −80° C. Cell paste was resuspended in 25 ml of lysis buffer (20 mM sodium acetate, 50 mM sodium chloride, pH 4.5), lysed by sonication, and clarified by spinning at 10,000 rpm at 4° C. in a Sorvall SS34 rotor. The samples were further acidified by the addition of acetic acid. […] IL6R binding was assessed in an ELISA as follows: the plates were coated with either 100 ng/well of human IL6R for 1 hour at 37° C., blocked with 3% BSA in PBS for one hour at 37° C., bound by adding the AC342 dilution series to the plate and incubating for one hour at room temperature, washed 3 times with PBST, detected with biotinylated anti-XTEN antibody for one hour at room temperature, washed three times with PBST, amplified with streptavidin-HRP for one hour at room temperature, washed three times with PBST, developed with TMB substrate and read at 405 nm using a plate reader."}, "[2]": {"target": "human CD40 (Homo sapiens, UniProt P25942)", "sequence (P25942 21-193 limits assumed)": "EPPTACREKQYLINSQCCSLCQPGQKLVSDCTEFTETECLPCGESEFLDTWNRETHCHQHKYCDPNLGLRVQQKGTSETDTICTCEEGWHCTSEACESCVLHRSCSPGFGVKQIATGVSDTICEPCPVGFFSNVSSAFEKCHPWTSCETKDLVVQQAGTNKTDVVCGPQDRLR", "experiment": "CD40 binding ELISA with cleared lysates of aCD40-XTEN", "settings": "from EC50 of lysate dilution and an estimate concentration of 10 μM in the lysate", "experimental": "Two aCD40-XTEN constructs, AC384 and AC385, were expressed by growing a culture to saturation in 2×YT and then using this culture to inoculate a 500 ml flask of 2×YT. This second flask was grown to an OD600 of between 0.6 and 1.0 at 37° C., transferred to 26° C., and induced with 1 mM IPTG. The induction was left overnight and cell paste harvested by centrifugation the flowing morning. These pellets were stored as EP220 and EP221. Small samples were taken from the pellet, lysed using bugbuster, and clarified using a microcentrifuge. These cleared lysates were the serially diluted by a factor of three in PBST, for using in a binding ELISA. The ELISA was performed as follows: The plates were coated with either 100 ng/well of human CD40-Fc fusion for 1 hour at 37° C., blocked with 3% BSA in PBS for one hour at 37° C., bound by adding the AC384 or AC385 dilution series to the plate and incubating for one hour at room temperature, washed 3 times with PBST, detected with biotinylated anti-XTEN antibody for one hour at room temperature, washed three times with PBST, amplified with streptavidin-HRP for one hour at room temperature, washed three times with PBST, developed with TMB substrate and read at 405 nm using a plate reader. The ELISA values were plotted versus dilution of lysate plotted on a log scale and an EC50 value determined, with nearly identical results (FIG. 27)."}, "[3]": {"experiment": "Stability of XTEN_AE864-GFP incubated in monkey plasma", "format": "in vitro ADME, cynomolgus monkey", "settings": "37° C., 7 days", "experimental": "(§1) FIG. 16A-FIG. 16C show an SDS-PAGE gel of samples from a stability study of the fusion protein of XTEN_AE864 fused to the N-terminus of GFP.\n(§2) A fusion protein containing XTEN_AE864 fused to the N-terminus of GFP was incubated in monkey plasma and rat kidney lysate for up to 7 days at 37° C. Samples were withdrawn at time 0, Day 1 and Day 7 and analyzed by SDS PAGE followed by detection using Western analysis and detection with antibodies against GFP as shown in FIG. 16A-FIG. 16C. […] The in vivo stability of the fusion protein was tested in plasma samples wherein the GFP_AE864 was immunoprecipitated and analyzed by SDS PAGE as described above."}, "[4]": {"experiment": "Stability of XTEN_AE864-GFP incubated in rat kidney lysate", "format": "in vitro ADME", "settings": "37° C., over 3 days", "experimental": "as §1\nas §2, with “Samples” for “A fusion protein containing XTEN_AE864 fused to the N-terminus of GFP was incubated in monkey plasma and rat kidney lysate for up to 7 days at 37° C. Samples”"}, "[5]": {"experiment": "In vivo stability of GFP-XTEN in plasma samples after injection", "set-up": "species or system cynomolgus monkeys", "settings": "samples up to 7 days after injection", "experimental": "as §1, §2"}}, "data": [{"molecule": "B1", "values": [{"measurement": "EC50", "setting": "[1]", "value": 5, "unit": "nM"}]}, {"molecule": "B2", "values": [{"measurement": "Kd", "setting": "[2]", "value": "~50", "unit": "nM"}]}, {"molecule": "B3", "values": [{"measurement": "Kd", "setting": "[2]", "value": "~50", "unit": "nM"}]}, {"molecule": "B4", "values": [{"measurement": "degradation in plasma", "setting": "[3]", "value": "negligible signs of degradation"}, {"measurement": "degradation in rat kidney lysate", "setting": "[4]", "value": "rapidly degraded"}, {"measurement": "degradation in vivo", "setting": "[5]", "value": "very few signs of degradation"}]}]}
